# Measured values reported in article PMC7939549, “LAP2alpha maintains a mobile and low assembly state of A-type lamins in the nuclear interior” (eLife, 2021).
# T1: lamin A/C (endogenous, mEos3.2-lamin A/C WT mouse dermal fibroblasts) (mouse (endogenous in mouse dermal …, UniProt P48678 1-647))
# T1 construct: lamins A and C, both products of the mouse Lmna gene, precipitated together by lamin A/C antibodies; WT clone #21 expresses mEos3.2-tagged lamin A/C (mEos3.2 in frame before the first codon, N-terminal) from 1 allele and untagged lamin A/C from 3 alleles; the precipitated pool holds tagged and untagged lamins A and C; also called lamins A and C; A-type lamins; source: endogenous, mEos3.2-Lmna WT …
# T1 sequence (looked up): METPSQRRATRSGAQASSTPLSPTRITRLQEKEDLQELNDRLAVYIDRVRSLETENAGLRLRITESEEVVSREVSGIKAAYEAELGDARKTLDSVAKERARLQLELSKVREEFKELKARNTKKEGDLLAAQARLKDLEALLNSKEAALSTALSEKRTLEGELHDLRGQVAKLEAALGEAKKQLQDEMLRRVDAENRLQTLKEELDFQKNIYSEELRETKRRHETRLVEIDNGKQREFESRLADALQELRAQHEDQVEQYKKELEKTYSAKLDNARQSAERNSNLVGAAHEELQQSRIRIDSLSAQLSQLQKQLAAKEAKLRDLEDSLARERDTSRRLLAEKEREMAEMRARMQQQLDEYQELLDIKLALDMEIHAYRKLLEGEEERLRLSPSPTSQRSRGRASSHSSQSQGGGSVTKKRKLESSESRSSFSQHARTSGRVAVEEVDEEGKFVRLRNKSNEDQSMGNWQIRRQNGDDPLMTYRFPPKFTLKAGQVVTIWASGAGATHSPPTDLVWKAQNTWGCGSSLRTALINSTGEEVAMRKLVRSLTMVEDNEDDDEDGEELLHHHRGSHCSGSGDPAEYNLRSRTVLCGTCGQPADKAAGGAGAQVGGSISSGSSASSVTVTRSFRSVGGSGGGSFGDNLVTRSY
# Target: T1, lamin A/C (endogenous, mEos3.2-lamin …)
# Experiment: not stated; our unpublished data; ratio of mEos3.2-lamin A and LAP2α in the complex
binder,measurement,value
"LAP2α (endogenous, mouse dermal fibroblasts) (natural protein, UniProt Q61033 1-693, looked up, lamin-associated polypeptide 2 alpha (LAP2α), mouse, endogenous, detected with antibody 1H11; also called lamin-associated polypeptide 2 alpha; source: endogenous, mEos3.2-Lmna WT mouse dermal fibroblasts, soluble cell extract) MPEFLEDPSVLTKDKLKSELVANNVTLPAGEQRKDVYVQLYLQHLTARNRPPLAAGANSKGPPDFSSDEEREPTPVLGSGASVGRGRGAVGRKATKKTDKPRLEDKDDLDVTELSNEELLDQLVRYGVNPGPIVGTTRKLYEKKLLKLREQGTESRSSTPLPTVSSSAENTRQNGSNDSDRYSDNDEGKKKEHKKVKSARDCVPFSELASTPSGAFFQGISFPEISTRPPLGRTELQAAKKVQTTKRDPPRETCTDTALPGKGQTHKLAPGRSLFIPSESSYDRCVEKSSSPSSQREFAARLVSAAASPSLIRETTTTYSKDIVENICRGGKSRAQPLRAEEPGVSDQSVFSSEREVLQESERSQVISPPLAQAIRDYVNSLLVQGGVGSLPGTSDSVPTLDVENICKRLSQSSYQDSESLSPPRKVPRLSEKPARGGDSGSCVAFQNTPGSEHRSSFAKSVVSHSLTTLGVEVSKPPPQHDKIEASEPSFPLHESILKVVEEEWQQIDRQLPSVACRYPVSSIEAARILSVPKVDDEILGFISEATPRAATQASSTESCDKHLDLALCRSYEAAASALQIAAHTAFVAKSLQADISQAAQIINSDPSDAQQALRILNRTYDAASYLCDAAFDEVRMSACAMGSSTMGRRYLWLKDCKISPASKNKLTVAPFKGGTLFGGEVHKVIKKRGNKQ",stoichiometry N,1
